The source of these data is US20080318839A1.

One test has as its target ER-VP64 (mouse) (UniProt P19785). Nature of the test: cell-based or functional assay.
For the next test, the target named is Cf2-PBD-VP64 (human) (UniProt P06401). Nature of the test: cell-based or functional assay.
Sequence of Cf2-PBD-VP64 (human) (P06401 640-914): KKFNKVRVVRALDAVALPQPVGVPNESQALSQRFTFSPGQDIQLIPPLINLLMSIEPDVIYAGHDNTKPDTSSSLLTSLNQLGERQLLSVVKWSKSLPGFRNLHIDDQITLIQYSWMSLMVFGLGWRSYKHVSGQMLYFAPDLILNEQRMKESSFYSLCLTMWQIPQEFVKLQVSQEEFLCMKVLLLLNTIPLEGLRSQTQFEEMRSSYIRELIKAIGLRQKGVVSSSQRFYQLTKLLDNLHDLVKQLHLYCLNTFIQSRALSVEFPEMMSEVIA

Sequence of ER-VP64 (mouse) (P19785 282-599 G525R): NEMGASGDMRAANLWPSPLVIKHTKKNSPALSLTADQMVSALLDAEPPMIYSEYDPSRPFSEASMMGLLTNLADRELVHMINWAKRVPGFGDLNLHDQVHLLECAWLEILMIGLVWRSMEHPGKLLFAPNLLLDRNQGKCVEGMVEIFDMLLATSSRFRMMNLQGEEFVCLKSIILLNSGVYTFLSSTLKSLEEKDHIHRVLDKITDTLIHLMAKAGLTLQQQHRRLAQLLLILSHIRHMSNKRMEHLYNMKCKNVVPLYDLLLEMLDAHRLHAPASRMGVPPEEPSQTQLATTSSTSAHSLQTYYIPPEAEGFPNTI
Sequence of C7-PBD-VP64 (P06401 640-914): as the sequence (P06401 640-914) above

E2C-ER (from UniProt P19785 282-599): in the test with ER-VP64 (mouse), the luciferase assay, erbB-2 promoter activity in HeLa cells, with Tamoxifen is 3 fold and the tamoxifen-dependent activation of the erbB-2 promoter (luciferase) worked out at 5.3 fold.

For the substance “C7-PBD-VP64 (from UniProt P06401 640-914)”, the ligand-dependent change in transcription, C7-Cf2 TATA luciferase reporter with Cf2-PBD-VP64 (human) was 2 fold.
